Assay [1] deals with T1, FcRL4, overexpressed on 3T3 cells (UniProt Q96PJ5 20-515, limits assumed).
T1 construct: whole, on cells
T1 sequence (looked up): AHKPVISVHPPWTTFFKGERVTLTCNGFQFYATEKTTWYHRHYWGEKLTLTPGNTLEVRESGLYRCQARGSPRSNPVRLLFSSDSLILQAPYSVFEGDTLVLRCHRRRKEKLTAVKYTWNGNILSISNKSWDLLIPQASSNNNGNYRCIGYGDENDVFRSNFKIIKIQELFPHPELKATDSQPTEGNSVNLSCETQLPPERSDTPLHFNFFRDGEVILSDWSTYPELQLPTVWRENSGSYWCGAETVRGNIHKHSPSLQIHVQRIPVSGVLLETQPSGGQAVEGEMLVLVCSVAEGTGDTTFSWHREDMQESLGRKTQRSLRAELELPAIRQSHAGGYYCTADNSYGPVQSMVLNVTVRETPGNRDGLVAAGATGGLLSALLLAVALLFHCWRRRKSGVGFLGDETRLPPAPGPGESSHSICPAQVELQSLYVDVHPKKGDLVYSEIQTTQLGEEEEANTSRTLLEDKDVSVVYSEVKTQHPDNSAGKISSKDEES
Description: phage clone on 3T3-FcRL4 cells.

Assay [2] concerns the target T2, FcRL6, overexpressed on 3T3 cells (UniProt Q6DN72 20-434, limits assumed).
T2 construct: whole, on cells
T2 sequence (looked up): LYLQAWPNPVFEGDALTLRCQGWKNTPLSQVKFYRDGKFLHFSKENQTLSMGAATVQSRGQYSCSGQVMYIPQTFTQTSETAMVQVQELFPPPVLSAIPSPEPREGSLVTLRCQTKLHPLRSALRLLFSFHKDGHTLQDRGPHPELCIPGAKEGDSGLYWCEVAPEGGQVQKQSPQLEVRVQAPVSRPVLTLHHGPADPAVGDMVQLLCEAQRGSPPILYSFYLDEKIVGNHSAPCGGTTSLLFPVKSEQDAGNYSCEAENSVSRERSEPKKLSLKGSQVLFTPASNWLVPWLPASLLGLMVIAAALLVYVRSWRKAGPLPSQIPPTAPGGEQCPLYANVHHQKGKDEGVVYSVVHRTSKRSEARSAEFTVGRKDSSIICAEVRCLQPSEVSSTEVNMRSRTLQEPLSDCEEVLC
Description: phage clone on 3T3-FcRL6 cells.

B1: ET200-109 (scFv)
scFv: LPVLTQPPSASATPGQRVTISCSGTTSNIGSNTVHWYQQLPGTAPKLLIYNNNQRPSGVPDRFSGSKSGTSASLAISGLRSEDEATYSCATWDDSLSGVVFGGGTKLTVLGSRGGGGSGGGGSGGGGSLEMAEVQLVQSGAEVKKPGSSVKVSCKASGGTFSSYAISWVRQAPGQGLEWMGGIIPIFGTANYAQKFQGRVTITADESTSTAYMELSSLRSEDTAVYYCARDPAYGDYEYDAFDIWGQGTMVTVSSTSGQAGQHHHHHHGAYPYDVPDYAS
notes: screened as phage clone; entry is VL-linker-VH-His tag-HA tag
For B1, the binding result in assay [1] and in assay [2] was “no binding” in each case.

B2: ET200-106 (scFv)
scFv: SYELTQPPAASGTPGQRVTISCSGGVSNIGSGALNWYQQLPGTAPKLLIYSYNQRPSGVSDRFSGSRSATSASLAISGLQSEDEADYYCATWDDSVNGWVFGGGTKLTVLGSRGGGGSGGGGSGGGGSLEMAEVQLVESGAEVKKPGDSVKVSCKPSGYNFLNYGINWVRQAPGQGLEWMGWISTYTGNTNYAQKLQGRVTFTTDTSTSTAYMEMRSLRSDDTAVYYCARQQGGGWYDVWGQGTLVTVSSTSGQAGQHHHHHHGAYPYDVPDYAS
notes: as for B1
With B2, the binding result in assay [1] and in assay [2] was “no binding” in each case.

B3: ET200-100 (scFv)
scFv: NFMLTQPHSVSESPGKTVTISCTRSSGSIASNFVQWYQQRPGSAPTPMIYEDNNRPPGVPDRFSASVDSSSNSASLTISGLKTEDEADYYCQSYDTSNVVFGGGTKLTVLGSRGGGGSGGGGSGGGGSLEMAEVQLVESGGGLVQPGGSLRLSCAASGFTFSSYEMNWVRQAPGKGLEWVSYISSSGSTIYYADSVKGRFTISRDNAKNSLYLQMNSLRAEDTAVYYCARWDYGMDVWGQGTTVTVSSTSGQAGQHHHHHHGAYPYDVPDYAS
notes: as for B1
Consider B3, for which the binding result in assay [1] and in assay [2] was “no binding” in each case.

B4: ET200-104 (scFv)
scFv: NFMLTQPHSVSESPGKTVTISCTRSSGSIASNYVQWYQQRPGSAPTTVIYEDNQRPSGVPDRFSGSIDSSSNSASLTISGLKTEDEADYYCQSYDSSNVVFGGGTKVTVLGSRGGGGSGGGGSGGGGSLEMAEVQLVESGGGLVQPGGSLRLSCAASGFTFSSYEMNWVRQAPGKGLEWVSYISSSGSTIYYADSVKGRFTISRDNAKNSLYLQMNSLRAEDTAVYYCARWDYGMDVWGQGTTVTVSSTSGQAGQHHHHHHGAYPYDVPDYAS
notes: as for B1
For the molecule B4, the binding result in assay [1] and in assay [2] was “no binding” throughout.

B5: ET200-101 (scFv)
scFv: QAVLTQPPSASGAPGQRVTVSCSGSNSNIGSNYVNWYQQFPGTAPKLLMYSSSQRPSGVPDRFSGSKSGTSASLAISGLHSEDEADYYCATWDDSLNAWVFGGGTKLTVLGSRGGGGSGGGGSGGGGSLEMAEVQLVQSGAEVRKPGASVKVSCKTSGYTFTWYAIHWVRQAPGQRLEWMGWINAGSGNTKYSQKFQGRVTLTRDTSASTAYMELSSLRSDDTAVYYCARPNNYGSGGDVFDIWGQGTMVTVSSTSGQAGQHHHHHHGAYPYDVPDYAS
notes: as for B1
As for B5, the binding result in assay [1] and in assay [2] was “no binding” in each case.

B6: ET200-007 (scFv)
scFv: SYVLTQPLSVSVAPGKTARITCGGNNIGSKTVHWYQQKPGQAPVLVIYYDSDRPSGIPERFSGSNSGNTATLTISRVEAGDEADYYCQVWDSSSDHRVFGGGTKLTVLGSRGGGGSGGGGSGGGGSLEMAQVQLQESGPGLVKPSETLSLTCNVSGYSISSGYFWGWIRQPPGKGLEWIGSIYHSRSTYYNPSLKSRVTISVDTSKNQFSLKLNSVTAADTAVYYCARGYGYFDYWGQGTLVTVSSTSGQAGQHHHHHHGAYPYDVPDYAS
notes: as for B1
For the molecule B6, the binding result in assay [1] and in assay [2] was “no binding” throughout.

B7: ET200-108 (scFv)
scFv: QSVLTQPPSVSAPPGQKVTISCSGSSSNIGNNYVSWYQQFPGTAPKLLIYDNNKRPSGISDRFSGSKSGTSATLGIAGLQTGDEADYYCGTWDTSLSGFYVFGSGTKVTVLGSRGGGGSGGGGSGGGGSLEMAEVQLVQSGAEVKKPGASVKVSCKASGYTFTSYTISWVRQAPGQGLEWMGWISTYNGLTNYAQNLQGRVTMTTDTFTTTAYMELRSLRSDDTAVYYCVREGSPDYGDFASFDYWGQGTLVTVSSTSGQAGQHHHHHHGAYPYDVPDYAS
notes: as for B1
For the molecule B7, the binding result in assay [1] and in assay [2] was “no binding” each time.

B8: ET200-099 (scFv)
scFv: QSVLTQPPSASGTPGQRVTISCSGSSSNIGSNTVNWYQQLPGTAPKLLIYSNDQRPSGVPDRFSGSKSGTSASLAISGLQSEDEADYYCASWDDSLNGRYVFGTGTKVTVLGSRGGGGSGGGGSGGGGSLEMAQVQLVQSGAEVRKPGASVKVSCKTSGYTFSWYAIHWVRQAPGQRLEWMGWINAGNGNTKYSQKFQGRVSLTRDTSASTAYMELSSLRSDDTAVYYCARPDNYGSGGDVFDIWGQGTMVTVSSTSGQAGQHHHHHHGAYPYDVPDYAS
notes: as for B1
For B8, the binding result in assay [1] and in assay [2] was “no binding” throughout.

B9: ET200-112 (scFv)
scFv: QAVLTQPPSASGTPGQRVTISCSGSSSNIGSNTVNWYQQLPGTAPKLLMYSNDQRPSGVPDRFSGSKSGTSASLAISGLQSEDEADYYCAAWDDSLNGYVFAAGTQLTVLSSRGGGGSGGGGSGGGGSLEMAQVQLQQWGAGLLKPSETLSLTCAVYGGSFSGYYWSWIRQPPGKGLEWIGEINHSGSTNYNPSLKSRVTISVDTSKNQFSLKLSSVTAADTAVYYCAREGLDAFDIWGQGTMVTVSSTSGQAGQHHHHHHGAYPYDVPDYAS
notes: as for B1
Consider B9, for which the binding result in assay [1] and in assay [2] was “no binding” each time.

B10: ET200-103 (scFv)
scFv: QAVLTQPHSVSESPGKTVTISCTRSSGSIASNYVQWYQQRPGSAPTTVIYEDNQRPSGVPDRFSGSIDSSSNSASLTISGLKTEDEADYYCQSYDSTITVFGGGTKLTVLGSRGGGGSGGGGSGGGGSLEMAQVQLVQSGAEVKKPGSSVKVSCKASGGTFSSYAISWVRQAPGQGLEWMGGIIPIFGTANYAQKFQGRVTITADESTSTAYMELSSLRSEDTAVYYCAGEGYYDSSGYSNGDAFDIWGQGTMVTVSSTSGQAGQHHHHHHGAYPYDVPDYAS
notes: as for B1
Consider B10, for which the binding result in assay [1] and in assay [2] was “no binding” throughout.

B11: ET200-102 (scFv)
scFv: QSVVTQPPSVSAAPGQKVTISCSGSSSNIGNNYVSWYQQLPGTAPKLLIYDNNKRPSGIPDRFSGSKSGTSATLGITGLQTGDEADYYCGTWDSSLSAYVFGTGTKVTVLGSRGGGGSGGGGSGGGGSLEMAQVQLVQSGAEVKKPGASVKVSCKASGYTFTNYALHWVRQAPGQGLEWMAWINGGNGNTKYSQNFQGRVTITRDTSASTAYMELSSLRSEDTAVYYCAKPEETAGTIHFDYWGQGTPVTVSSTSGQAGQHHHHHHGAYPYDVPDYAS
notes: as for B1
As for B11, the binding result in assay [1] and in assay [2] was “no binding” throughout.

B12: ET200-107 (scFv)
scFv: QSVVTQPPSVSAAPGEKVTISCSGSNFNVGNNDVSWYQQLPGAAPKLLIYDNNKRPSGIPDRFSGSKSGTSATLDITGLHSDDEADYYCGTWDSSLNTGGVFGTGTKVTVLGSRGGGGSGGGGSGGGGSLEMAEVQLVQSGAEVKKPGASVKVSCKASGYTFTSYTISWVRQAPGQGLEWMGWISTYNGLTNYAQNLQGRVTMTTDTFTTTAYMELRSLRSDDTAVYYCVREGSPDYGDFASFDYWGQGTLVTVSSTSGQAGQHHHHHHGAYPYDVPDYAS
notes: as for B1
On to B12, for which the binding result in assay [1] and in assay [2] was “no binding” in each case.

B13: ET200-105 (scFv)
scFv: SYVLTQPPSVSVSPGQTASITCSGDRLTNKYVSWYQQKPGQSPVLVIYEDAKRPSGIPARFSGSNSGNTATLTISGTQAMDESEYYCQAWDSSVVVFGGGTKLTVLGSRGGGGSGGGGSGGGGSLEMAEVQLVESGGGLVQPGRSLRLSCAASGFTFDDYAMHWVRQAPGKGLEWVSGISWNSGSIGYADSVKGRFTISRDNAKNSLYLQMNSLRDEDTALYYCAKDRGGGVIVKDAFDIWGQGTMVTVSSTSGQAGQHHHHHHGAYPYDVPDYAS
notes: as for B1
Regarding B13, the binding result in assay [1] and in assay [2] was “no binding” throughout.

B14: ET200-110 (scFv)
scFv: QSVLTQPPSASGTPGQRVTISCSGSSSNIGTNGVNWFQQFPGTAPKLLIYTNDQRPSGVPDRFSGSKSGTSASLAISGLQSADEADYYCAVWDHSLNGPVFGGGTKLTVLGSRGGGGSGGGGSGGGGSLEMAQVQLVQSGAEVKKPGSSVKVSCKASGGTFSSYAISWVRQAPGQGLEWMGGIIPIFGTANYAQKFQGRVTITADESTSTAYMELSSLRSEDTAVYYCARGAGFDAFDIWGQGTMVTVSSTSGQAGQHHHHHHGAYPYDVPDYAS
notes: as for B1
On to B14, for which the binding result in assay [1] and in assay [2] was “no binding” each time.

The record behind these values is patent publication US20210388081A1 (Memorial Sloan Kettering, published 2021).
